This is an account of results in patent publication US20110311475A1 (published 2011).

Test [1] concerns the target T1, Recombinant Human IL-4 Rα Fc Chimera protein (R&D Systems) (human, UniProt P24394 26-231).
T1 construct: In the assay it was coupled to DyLight 649 conjugated Protein A; also called IL-4Rα subunit; Fc part of the bought chimera not given
T1 sequence (looked up): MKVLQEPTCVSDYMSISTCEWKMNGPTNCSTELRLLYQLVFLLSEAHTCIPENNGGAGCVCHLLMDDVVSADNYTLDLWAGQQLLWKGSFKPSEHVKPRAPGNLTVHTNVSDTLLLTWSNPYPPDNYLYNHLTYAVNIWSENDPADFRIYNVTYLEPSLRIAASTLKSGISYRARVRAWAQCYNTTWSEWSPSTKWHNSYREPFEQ
Put plainly: bead-based flow cytometric immunoassay, receptor-Fc chimera/Protein A-DyLight 649 (FIG. 19D). From the text: (§1) Both goat anti-human IL-21 and rabbit anti-human IL-21 antibodies were initially tested using a Western blot technique to confirm suitable detection of the IL-21 variant proteins with the predicted size. The success of antibody-to-bead conjugation was verified using PE Goat anti-Rabbit IgG Detector (BD Biosciences). To detect the receptor interaction of bead-captured IL-21 variants with the Interleukin-21 receptor proprietary subunit, the Interleukin-4 receptor alpha subunit, the Interleukin-2 receptor alpha or the Interleukin-2 receptor beta, appropriate receptor-Fc-chimera proteins were coupled with a Protein-A-fluorochrome complex suitable for flow cytometric evaluation. […] 50 μl of antibody-coated beads and serial dilutions of IL-21 variant proteins, with final concentrations ranging from 100 pg/ml to 1 μg/ml, were incubated together with the fluorescence conjugated receptor-chimera-Protein-A complexes in excess in 96-well plates for 3 h on a titer plate shaker. […] Bead particles were discriminated on the basis of size and fluorescence (see FIGS. 19A and B) on a BD FACSCanto II system with BD FACSDiva software (BD Biosciences). […]
Background: In flow cytometry, cells or beads pass a laser one at a time.

Test [2] concerns the target T2, IL2 Receptor beta protein (Fc Chimera Active, Abcam plc) (human, UniProt P14784 27-240).
T2 construct: In the assay it was coupled to DyLight 649 conjugated Protein A; also called IL-2Rβ subunit; human Interleukin-2 receptor beta (CD122); Fc part of the bought chimera not given
T2 sequence (looked up): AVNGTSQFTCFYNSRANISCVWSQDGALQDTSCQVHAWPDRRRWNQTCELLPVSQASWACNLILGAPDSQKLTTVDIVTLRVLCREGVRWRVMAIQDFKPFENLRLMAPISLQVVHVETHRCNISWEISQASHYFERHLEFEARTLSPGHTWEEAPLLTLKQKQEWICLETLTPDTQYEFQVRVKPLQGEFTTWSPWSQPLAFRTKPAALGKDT
Put plainly: bead-based flow cytometric immunoassay, receptor-Fc chimera/Protein A-DyLight 649 (FIG. 19C).
Text: as §1

B1: IL-21/IL-4 hybrid protein (ligand)
chain: QGQDRHMITLQEIIKTLNSLTEQKTLVPEFLPAPEDVETNCEWSAFSCFQKAQLKSAQQFHRHKQLIRFLKRLDRNLWGLAGLNSCPSCDSYEKKPPKEFLERFKSLLQKMIHQHLSSRTHGSEDS
notes: also called IL-21/IL-4 hybrid variant; IL-21/IL-4 variant protein
With B1, the binding result in test [1] is given as “binds”.

B2: IL-21/IL-2 hybrid protein (ligand)
chain: QGQDRHMIRMRQLIDIVDQLKNYVNDLVPEFLPAPEDVETNCEWSAFSCFQKAQLKSANTGNNERIINVSISNINVIVLELKGSETTFMCDSYEKKPPKEFLERFKSLLQKMIHQHLSSRTHGSEDS
notes: also called IL-21 variant
In the case of B2, in test [2], the binding result is listed as “binds”.
